{"source": "paper doi:10.1101/2023.04.27.535981", "about": "“Development of constrained peptide inhibitors targeting an oncogenic E3 ubiquitin ligase” (bioRxiv, 2023)", "binders": {"B1": {"name": "TAMRA-labelled 10-residue phosphorylated p27 peptide (TAMRA-Ahx-AGSVEQT(phos)PKK) (peptide)", "peptide": "{TAMRA-Ahx}-AGSVEQ[pT]PKK", "notes": "p27, amino acids 181-190; also called TAMRA-labelled p27 peptide; TAMRA-labelled unconstrained p27 peptide; source: synthetic peptide"}}, "target": "T1, Cks1-Skp2-Skp1 complex (GST-Skp2-Skp1-His-Cks1) (human | , UniProt Q13309 1-424; P63208 1-163; P61024 1-79)", "T1 construct": "Skp2, human; GST-Skp2 fusion from a dicistronic pGEX 4T1 plasmid with Skp1; Skp1, human; second cistron of the pGEX 4T1 GST-Skp2/Skp1 plasmid; Cks1, full length (1-79); The design was based on PDB 2AST, whose constructs may differ; also called Skp1-Skp2-Cks1 complex; Skp2-Skp1-Cks1 complex; source: E. coli C41; GST-Skp2-Skp1 (glutathione Sepharose, SEC) and His-Cks1 (Ni-NTA, SEC) purified, mixed …", "T1 sequence (Q13309 whole entry, chain 1 of 3, the tested form may be a part)": "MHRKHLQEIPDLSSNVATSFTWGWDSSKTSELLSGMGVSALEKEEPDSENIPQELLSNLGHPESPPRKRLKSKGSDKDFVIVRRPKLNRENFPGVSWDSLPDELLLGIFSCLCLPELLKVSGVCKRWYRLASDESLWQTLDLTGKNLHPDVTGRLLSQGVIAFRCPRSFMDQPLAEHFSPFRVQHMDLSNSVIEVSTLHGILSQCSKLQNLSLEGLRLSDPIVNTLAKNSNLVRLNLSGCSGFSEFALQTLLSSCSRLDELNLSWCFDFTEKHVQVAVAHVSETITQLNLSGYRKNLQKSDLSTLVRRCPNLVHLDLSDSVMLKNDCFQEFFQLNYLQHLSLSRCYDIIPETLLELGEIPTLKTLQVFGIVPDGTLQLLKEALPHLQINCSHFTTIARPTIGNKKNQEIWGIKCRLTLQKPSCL", "T1 sequence (P63208 whole entry, chain 2 of 3, the tested form may be a part)": "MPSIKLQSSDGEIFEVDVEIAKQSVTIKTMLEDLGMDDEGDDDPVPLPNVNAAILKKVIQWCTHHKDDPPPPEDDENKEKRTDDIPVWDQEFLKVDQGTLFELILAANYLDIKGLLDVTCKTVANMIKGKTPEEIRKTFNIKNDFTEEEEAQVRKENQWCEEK", "T1 sequence (P61024 whole entry, chain 3 of 3, the tested form may be a part)": "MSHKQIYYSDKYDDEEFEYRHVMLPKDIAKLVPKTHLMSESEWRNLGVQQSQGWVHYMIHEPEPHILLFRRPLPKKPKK", "assay": "fluorescence polarisation; direct FP; protein serially diluted 1:2 (12 points, triplicate) and mixed with 20 nM TAMRA-labelled peptide; SEC buffer (20 mM Tris-HCl pH 7.5, 150 mM NaCl, 1 mM DTT) with 0.01 % Tween-20; 30 min at room temperature", "details": "both partners purified", "note": "Square brackets hold non-standard residues; d marks the D form. Ends that are not written are not given here. pT = C[C@@H](OP(=O)(O)O)[C@H](N)C(=O)O; Ahx = NCCCCCC(=O)O", "data": [{"binder": "B1", "values": [{"measurement": "Kd", "result": "2780 ± 190", "unit": "nM"}]}]}
